Reference: the supplement of paper PMC7125110
± gives the standard error. This sample holds only a part of the variants without activity.

B1: glmS ribozyme (parent)
chain: AUAAAAGCGCCAGAACUACAGAAAUGUAGUUGACGAGGAGGAGGUUUAUCGAAUUUUCGGCGGAUGCCUCCAAA

Legend:
Details in all cases: with glucosamine-6-phosphate
[1] = variants of: B1; experiment: self-cleavage kobs at 40 uM GlcN6P; higher = faster cleavage; RNA array
Method in brief: (§1)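 A hybridised Cy3 probe tracked barcoded ribozyme variants, transcribed in situ by E. coli RNA polymerase on sequenced MiSeq chips, at 37 °C. The variants received 40 μM to 10 mM glucosamine-6-phosphate in HEPES/KCl/Mg(OAc)2 buffer. kobs came from decay fits and kcat and KM from weighted Michaelis–Menten fits.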

[2] = variants of: B1; experiment: self-cleavage kobs at 640 uM GlcN6P; higher = faster cleavage; RNA array
Method in brief: as §1

[3] = variants of: B1; experiment: self-cleavage kobs at 2500 uM GlcN6P; higher = faster cleavage; RNA array
Method in brief: as §1

[4] = variants of: B1; experiment: self-cleavage kobs at 10000 uM GlcN6P; higher = faster cleavage; RNA array
Method in brief: as §1

[5] = variants of: B1; experiment: self-cleavage kobs at 160 uM GlcN6P; higher = faster cleavage; RNA array
Method in brief: as §1

Variant	self-cleavage kobs at 40 uM GlcN6P [1]	self-cleavage kobs at 640 uM GlcN6P [2]	self-cleavage kobs at 2500 uM GlcN6P [3]	self-cleavage kobs at 10000 uM GlcN6P [4]	self-cleavage kobs at 160 uM GlcN6P [5]
U30C G38C	< 1e-05 s⁻¹	< 1e-05 s⁻¹	< 1e-05 s⁻¹		
U30C C50A U65A U69G	4.39e-05 ± 1.7e-05 s⁻¹	0.000207 ± 5.3e-05 s⁻¹	5.84e-05 ± 2.3e-05 s⁻¹	3.19e-05 ± 1.6e-05 s⁻¹	
C16U A33U C50G A64U U69A	0.000139 ± 2.3e-05 s⁻¹			0.000172 ± 3.4e-05 s⁻¹	
A14G U47A C50A	< 1e-05 s⁻¹				
U30A A33G A48C C67A	< 1e-05 s⁻¹			< 1e-05 s⁻¹	
G29C G41U U46C G62U	< 1e-05 s⁻¹			< 1e-05 s⁻¹	
A15C A48G U69G	< 1e-05 s⁻¹			< 1e-05 s⁻¹	
G29A G59U G63A A64U	< 1e-05 s⁻¹			< 1e-05 s⁻¹	
A15U G59C A64C	< 1e-05 s⁻¹				
G29A A42C	< 1e-05 s⁻¹	< 1e-05 s⁻¹		< 1e-05 s⁻¹	< 1e-05 s⁻¹
G29C A36U A39G G63U	< 1e-05 s⁻¹			< 1e-05 s⁻¹	
U31G U47C	2.84e-05 ± 1.3e-05 s⁻¹	0.000197 ± 4.8e-05 s⁻¹	0.000501 ± 0.00015 s⁻¹		
C16G C34A	< 1e-05 s⁻¹	< 1e-05 s⁻¹		< 1e-05 s⁻¹	
G29C G60U C61A	< 1e-05 s⁻¹	< 1e-05 s⁻¹			
G13U G60U C68U	< 1e-05 s⁻¹				
A14C U45G A52C G63A	< 1e-05 s⁻¹				
C16A G29A A36U U65A C71U	< 1e-05 s⁻¹	< 1e-05 s⁻¹			
A15U U31C C50G	5.26e-05 ± 2.5e-05 s⁻¹				
A15U C16G C58U G59U	< 1e-05 s⁻¹	< 1e-05 s⁻¹	< 1e-05 s⁻¹		
C16U U47G	0.000296 ± 4.7e-05 s⁻¹	0.00106 ± 0.00021 s⁻¹	0.00142 ± 0.00037 s⁻¹	0.00951 ± 0.0018 s⁻¹	0.000527 ± 0.00011 s⁻¹
C16U C34U G37U	< 1e-05 s⁻¹				
G13U G35A U45A A64G	< 1e-05 s⁻¹	< 1e-05 s⁻¹	< 1e-05 s⁻¹	< 1e-05 s⁻¹	
U30G A42U G43U A48U G59U	< 1e-05 s⁻¹				
G13U C50G C61G	8.16e-05 ± 1.3e-05 s⁻¹			0.000116 ± 1.9e-05 s⁻¹	
G32A C61G	< 1e-05 s⁻¹				
U30G G32C A39G U45C A52U G63A	< 1e-05 s⁻¹	< 1e-05 s⁻¹	< 1e-05 s⁻¹	< 1e-05 s⁻¹	
A15U C34A A64U C68A	< 1e-05 s⁻¹			< 1e-05 s⁻¹	
